These results are taken from publication PMC7360481.

The target in the data set is Sox2 (Mus musculus, UniProt P48432 1-319). As to the kind of experiment: EMSA. (A gel shift assay detects complexes by their altered migration in electrophoresis.)
Chain of Sox2 (P48432 whole entry): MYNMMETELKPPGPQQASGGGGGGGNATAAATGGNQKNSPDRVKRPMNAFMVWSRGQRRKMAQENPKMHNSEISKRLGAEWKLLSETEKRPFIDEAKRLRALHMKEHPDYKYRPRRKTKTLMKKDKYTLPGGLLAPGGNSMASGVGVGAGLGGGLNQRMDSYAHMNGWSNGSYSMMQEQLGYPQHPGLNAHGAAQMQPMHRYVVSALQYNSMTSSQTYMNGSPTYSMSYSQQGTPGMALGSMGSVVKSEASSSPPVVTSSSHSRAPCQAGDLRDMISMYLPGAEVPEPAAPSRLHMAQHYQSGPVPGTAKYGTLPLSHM

B1: RNA/DNA hybrid (DNA:RNA)
RNA: CCUACUACCUGUGCCUUUAAGUACCUUUUCUGUCUUCUA
DNA: TAGAAGACAGAAAAGGTACTCTAAAGGCACAGGTAGTAGG
As to B1, the binding result is given as “no binding”.
